# From publication PMC12990809
# What was measured:
# Experiment in all cases: pulldown
# [1] = system: T1, PK23097.1 (Cannabis sativa); details: 20 nM protein, 1.5 uM RNA pool; 20 mM HEPES pH 7.8, 70 mM KCl, 10 mM NaCl, 10% glycerol, 2 mM DTT, 0.1 ug/uL BSA; 30 min, 4 C
# T1 sequence: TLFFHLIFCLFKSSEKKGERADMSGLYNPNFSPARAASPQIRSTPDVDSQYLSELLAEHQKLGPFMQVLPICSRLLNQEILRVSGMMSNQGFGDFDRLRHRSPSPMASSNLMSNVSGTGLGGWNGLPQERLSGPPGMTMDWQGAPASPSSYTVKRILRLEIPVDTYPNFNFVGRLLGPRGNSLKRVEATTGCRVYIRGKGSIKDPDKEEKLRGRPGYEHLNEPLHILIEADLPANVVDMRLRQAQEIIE
# [2] = target: T2, HNRNPL C396G (Homo sapiens) (UniProt P14866); details: 20 nM protein, 1.5 uM RNA pool; 20 mM HEPES pH 7.8, 70 mM KCl, 10 mM NaCl, 10% glycerol, 2 mM DTT, 0.1 ug/uL BSA; 30 min, 4 C (protocol of this paper; not …); cited from earlier work
# T2 sequence: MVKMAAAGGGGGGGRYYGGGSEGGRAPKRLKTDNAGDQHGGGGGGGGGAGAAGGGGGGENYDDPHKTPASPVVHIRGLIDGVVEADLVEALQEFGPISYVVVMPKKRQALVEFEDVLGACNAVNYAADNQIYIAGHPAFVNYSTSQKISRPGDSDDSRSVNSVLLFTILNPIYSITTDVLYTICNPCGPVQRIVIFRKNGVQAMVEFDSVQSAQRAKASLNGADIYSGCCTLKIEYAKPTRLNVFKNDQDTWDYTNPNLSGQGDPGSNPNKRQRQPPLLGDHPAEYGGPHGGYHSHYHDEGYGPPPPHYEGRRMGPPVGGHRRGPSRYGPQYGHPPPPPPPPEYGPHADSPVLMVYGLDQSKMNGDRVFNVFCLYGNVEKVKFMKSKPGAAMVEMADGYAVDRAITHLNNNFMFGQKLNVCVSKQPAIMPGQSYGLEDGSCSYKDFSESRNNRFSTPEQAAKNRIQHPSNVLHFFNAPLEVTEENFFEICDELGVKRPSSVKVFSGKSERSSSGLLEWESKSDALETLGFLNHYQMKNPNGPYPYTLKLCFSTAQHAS
# [3] = target: T3, pab-1 (Caenorhabditis elegans) (UniProt Q9U302); details: 20 nM protein, 1.5 uM RNA pool; 20 mM HEPES pH 7.8, 70 mM KCl, 10 mM NaCl, 10% glycerol, 2 mM DTT, 0.1 ug/uL BSA; 30 min, 4 C
# T3 sequence: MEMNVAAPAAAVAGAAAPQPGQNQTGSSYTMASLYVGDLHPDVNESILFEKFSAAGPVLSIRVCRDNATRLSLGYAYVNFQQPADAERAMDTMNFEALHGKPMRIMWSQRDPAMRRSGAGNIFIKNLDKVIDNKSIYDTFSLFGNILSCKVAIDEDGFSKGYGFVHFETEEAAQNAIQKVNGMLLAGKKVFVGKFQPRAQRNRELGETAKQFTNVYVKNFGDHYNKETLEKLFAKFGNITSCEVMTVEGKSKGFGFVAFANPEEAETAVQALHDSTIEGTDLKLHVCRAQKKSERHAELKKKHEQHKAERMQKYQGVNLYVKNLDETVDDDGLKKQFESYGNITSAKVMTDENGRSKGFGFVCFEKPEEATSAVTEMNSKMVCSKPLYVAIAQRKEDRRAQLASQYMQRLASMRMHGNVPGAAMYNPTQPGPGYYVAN
# [4] = target: T4, PK05405.1 I85V;D92G;E327K;K328E (Cannabis sativa) (UniProt A0A7J6HVI1); details: 20 nM protein, 1.5 uM RNA pool; 20 mM HEPES pH 7.8, 70 mM KCl, 10 mM NaCl, 10% glycerol, 2 mM DTT, 0.1 ug/uL BSA; 30 min, 4 C
# T4 sequence: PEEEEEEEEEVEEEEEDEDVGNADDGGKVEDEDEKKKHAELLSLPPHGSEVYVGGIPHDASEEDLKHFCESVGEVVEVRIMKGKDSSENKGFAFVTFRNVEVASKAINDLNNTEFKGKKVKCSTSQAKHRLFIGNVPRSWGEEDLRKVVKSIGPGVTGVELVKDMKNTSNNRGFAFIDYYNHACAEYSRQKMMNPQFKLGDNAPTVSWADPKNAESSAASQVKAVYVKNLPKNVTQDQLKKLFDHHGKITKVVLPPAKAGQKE
# [5] = target: T5, rbm-28 (Caenorhabditis elegans) (UniProt O62325); details: 20 nM protein, 1.5 uM RNA pool; 20 mM HEPES pH 7.8, 70 mM KCl, 10 mM NaCl, 10% glycerol, 2 mM DTT, 0.1 ug/uL BSA; 30 min, 4 C
# T5 sequence: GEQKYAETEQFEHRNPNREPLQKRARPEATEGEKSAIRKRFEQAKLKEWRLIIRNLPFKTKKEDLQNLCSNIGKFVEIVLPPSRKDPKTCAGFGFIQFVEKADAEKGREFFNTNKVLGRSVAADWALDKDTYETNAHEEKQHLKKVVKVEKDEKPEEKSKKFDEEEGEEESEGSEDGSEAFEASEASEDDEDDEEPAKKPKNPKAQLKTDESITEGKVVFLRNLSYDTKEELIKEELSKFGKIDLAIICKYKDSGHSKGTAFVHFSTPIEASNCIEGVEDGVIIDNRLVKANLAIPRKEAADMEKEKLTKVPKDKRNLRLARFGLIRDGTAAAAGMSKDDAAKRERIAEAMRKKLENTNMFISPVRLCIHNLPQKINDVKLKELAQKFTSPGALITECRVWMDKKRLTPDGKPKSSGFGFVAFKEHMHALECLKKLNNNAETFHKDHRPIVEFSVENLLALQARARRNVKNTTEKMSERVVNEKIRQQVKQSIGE
# [6] = target: T6, PK00840.1 S382G (Cannabis sativa) (UniProt A0A803NL23); details: 20 nM protein, 1.5 uM RNA pool; 20 mM HEPES pH 7.8, 70 mM KCl, 10 mM NaCl, 10% glycerol, 2 mM DTT, 0.1 ug/uL BSA; 30 min, 4 C
# T6 sequence: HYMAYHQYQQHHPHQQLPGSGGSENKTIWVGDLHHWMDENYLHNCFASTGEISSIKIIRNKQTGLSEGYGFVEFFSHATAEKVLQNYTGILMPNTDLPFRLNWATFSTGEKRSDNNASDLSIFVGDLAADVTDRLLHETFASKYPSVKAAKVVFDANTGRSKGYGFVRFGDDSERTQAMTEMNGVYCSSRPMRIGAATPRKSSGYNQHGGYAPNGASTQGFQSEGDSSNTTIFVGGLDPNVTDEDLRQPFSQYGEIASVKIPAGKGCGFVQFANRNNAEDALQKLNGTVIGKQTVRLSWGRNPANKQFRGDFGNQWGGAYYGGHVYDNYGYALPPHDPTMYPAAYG
# [7] = target: T7, K07H8.9 (Caenorhabditis elegans) (UniProt O45180); details: 20 nM protein, 1.5 uM RNA pool; 20 mM HEPES pH 7.8, 70 mM KCl, 10 mM NaCl, 10% glycerol, 2 mM DTT, 0.1 ug/uL BSA; 30 min, 4 C
# T7 sequence: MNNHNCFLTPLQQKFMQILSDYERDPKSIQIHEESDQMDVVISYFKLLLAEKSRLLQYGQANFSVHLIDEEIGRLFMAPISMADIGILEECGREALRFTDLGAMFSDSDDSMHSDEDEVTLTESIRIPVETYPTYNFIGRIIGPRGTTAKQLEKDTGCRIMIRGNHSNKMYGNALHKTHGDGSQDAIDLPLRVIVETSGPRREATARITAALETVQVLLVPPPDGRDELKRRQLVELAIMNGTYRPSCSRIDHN
substance,measurement,setting,value
ACUAAC [RNAcompete motif RNCMPT00465],binding signal (z-score (mean of top ten 7-mers)),[1],12.4
ACACACAA [RNAcompete motif RNCMPT00027],binding signal (z-score (mean of top ten 7-mers)),[2],8.6
AAAAAA [RNAcompete motif RNCMPT00471],binding signal (z-score (mean of top ten 7-mers)),[3],12.5
UUUUUCG [RNAcompete motif RNCMPT00466],binding signal (z-score (mean of top ten 7-mers)),[4],7.47
AGACUCU [RNAcompete motif RNCMPT00470],binding signal (z-score (mean of top ten 7-mers)),[5],9.34
UUUUUU [RNAcompete motif RNCMPT00461],binding signal (z-score (mean of top ten 7-mers)),[6],7.67
UACUNAC [RNAcompete motif RNCMPT00469],binding signal (z-score (mean of top ten 7-mers)),[7],7.13
